From patent publication US8680233B2, “Heteropeptides useful for reducing nonspecific adsorption” (Valorisation-Recherche, Limited Partnership, priority 2009, dated 2014)
Numbered stars: 1 amine (or outer) side, 2 acyl side, 3 side chain; on linkers, the order of the positions; unused ones are H or OH. Square brackets hold non-standard residues; d marks the D form. Ends that are not written are not given here. Peptide text beside a SMILES is read from it. azaTyr = O=C(N(Cc1ccc(O)cc1)N[*:1])[*:2]; azaPhe = O=C(N(Cc1ccccc1)N[*:1])[*:2]; azaLeu = CC(C)CN(N[*:1])C(=O)[*:2]; azaGly = NNC(=O)O; Mpa = O=C(O)CCS

What was measured:
[1] = Surface concentration of the peptide monolayer on Au by SPR; assay type: physicochemical; details: peptide SAM on Au SPR sensor; average of four replicates
Procedure: The surface coverage for each monolayer was measured according to the change in response of the SPR sensor in PBS for the bare Au surface relative to the peptide-coated Au surface. To measure the formation of the monolayers, each SPR sensor was mounted on a custom-made SPR instrument in the Kretschmann configuration based on a dove prism with wavelength interrogation as previously described (Bolduc et al., 2009, supra). An Ocean Optics™ USB4000 fibre optic spectrometer ranging from 550 to 850 nm was used to acquire the spectral information processed with Matlab to obtain the SPR sensorgram. A 25 μL Teflon fluidic cell positioned on top of the SPR sensors was used to inject the solutions required to functionalize with the recognition element and detect the analytes of interest. The SPR response was acquired at a frequency of 1 Hz. The s-polarized reference was acquired in PBS buffer before monitoring a 5 minute baseline in p-polarization. PBS was replaced with crude bovine serum (76 mg/mL protein) for 20 minutes and rinsed with PBS for 5 minutes to quantify the amount of non-specifically adsorbed proteins.
The formation of monolayers on Au was measured to ensure that the peptide monolayers are indeed binding to the SPR sensor. The surface concentration of the monolayer provides a measurement of the number of molecules per square cm (i.e. the density of the monolayer at the surface). The surface concentration (Γ) of peptide-like self-assembled monolayers (SAMs) was characterized with the measurement of the SPR response before the formation of the SAMs and after their formation on the Au surface of the SPR sensor. The difference of SPR wavelength (λSPR) between these two measurements increases with the increasing surface concentration of the SAMs following the equation proposed by Jung et al. (Jung, L. S. et al. Langmuir 1998, 14: 5636): Γ=ρ(−0.5/d)ln(1−(ΔλSPRm^−1(ηSAM−ηPBS)^−1)) (eq. 1)

[2] = Advancing contact angle in PBS on peptide SAMs; assay type: physicochemical; details: average of four replicates
[3] = Secondary structure of peptide SAM by FT-IR (mid-IR amide band); assay type: physicochemical; details: peptide SAM on gold-coated SPR sensor
Procedure: Microscope slides (BK7, 22×22 mm) were coated with a 3 nm titanium (Ti) adhesion layer and a 50 nm gold (Au) layer (purity 99.99%, ESPI metals) using a Cressington™ 308R sputter coater. These Au-coated SPR slides were immersed for at least 16 h in a 5 mM peptide solution in absolute ethanol to form a well-ordered monolayer (Masson, J. F. et al. Talanta 2004, 64: 716). Four replicates were prepared for each 3-MPA-peptide. The SAM formed on the SPR sensors was extensively rinsed with DMF and ethanol and dried. The mid-IR spectrum of the peptide monolayers immobilized on the SPR sensors was measured in attenuated total reflectance (ATR). Mid-IR spectra were recorded using a BRUKER TENSOR® 27 equipped with a Ge-ATR module.
The 3D structure of the peptides as SAMs is observed with the amide band visible in FT-IR. Peptides adopting an α-helix configuration are showing a strong amide band at 1645 cm^−1, while peptides auto-assembling in the β-sheet configuration leads to a shifted amide at 1675 cm^−1. Every peptide structure investigated in Table 1 adopted an α-helix configuration except for 3-MPA-HHHDD-OH, as shown in FIG. 3.
(§1) Peptides adopt secondary conformation, which plays a significant role in their biological activity. For peptides in solution, the secondary conformation is measured with CD, while peptides immobilized on a surface can be analyzed with mid-IR spectroscopy of the amide bands (Duevel, R. V., Corn, R. M., 1992. Analytical Chemistry 64(4), 337-342; Sakurai, T. et al., 2006. Journal of Peptide Science 12(6), 396-402). As listed in Table II, the secondary structure of most peptides adopted an α-helical conformation, with the exception of 3-MPA-DSDSD-OH, which adopted an extended conformation. As noted above, most peptides in the form of 3-MPA-peptide-OH adopt an α-helical conformation. Generally, mid-IR and CD agreed in the determination of the structures on surfaces and in solution, with the exception of one peptide. […] No relationship between structure and nonspecific adsorption could be established.

[4] = Secondary structure of peptide in solution by CD; assay type: physicochemical
Procedure: as §1

[5] = target: recombinant soluble His-tagged CD36 (Homo sapiens, UniProt P16671); test: SPR screening of peptide ligands on a CD36 functionalized sensor; assay type: binding; details: for Kd: CD36 functionalized sensor, linear Langmuir plot
Chain of recombinant soluble His-tagged CD36 (P16671 30-439 limits assumed): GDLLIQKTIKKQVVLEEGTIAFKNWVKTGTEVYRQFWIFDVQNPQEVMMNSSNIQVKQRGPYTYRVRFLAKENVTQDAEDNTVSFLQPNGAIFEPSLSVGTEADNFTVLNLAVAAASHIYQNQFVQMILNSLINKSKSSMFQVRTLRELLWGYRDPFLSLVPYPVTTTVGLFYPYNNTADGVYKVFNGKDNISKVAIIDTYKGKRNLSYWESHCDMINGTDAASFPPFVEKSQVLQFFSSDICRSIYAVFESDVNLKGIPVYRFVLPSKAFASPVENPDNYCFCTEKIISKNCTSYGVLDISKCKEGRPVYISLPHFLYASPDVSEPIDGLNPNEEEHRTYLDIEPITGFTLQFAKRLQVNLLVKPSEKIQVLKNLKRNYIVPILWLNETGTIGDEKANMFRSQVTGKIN
Procedure: The SPR sensors for screening small peptidic ligand binding to a recombinant soluble His-tagged CD36 functionalized surfaces were prepared as described above. Five ligands were investigated: EP80317, CP-2B(i), CP-3(iv), CP-2A(v) and DBG-178(27) with concentrations ranging from 30 μM to 100 nM except for EP80317. The latter was used for optimizing the system with solutions ranging from 1 mM to 100 nM. EP80317 (HAIC-2MeDTrp-DLys-Trp-D-Phe-Lys-NH2) is a positive control of known activity, CP-2B(i) (His-DTrp-AzaLeu-Trp-DPhe-Ala-NH2) is a negative control, and CP-3(iv) (Ala-DTrp-Ala-AzaPhe-DPhe-Lys-NH2), CP-2A(v) (His-DTrp-AzaGly-Trp-DPhe-Lys-NH2) and DBG-178(27) (His-DTrp-Ala-azaTyr-DPhe-Lys-NH2) are novel CD36 ligands (see PCT publication No. WO 08/154,738). Another negative control was accomplished by exposing the His-tagged hDHFR functionalized surface to the same concentration of CD36 peptidic ligand. Two different approaches were used to remove the His-tagged CD36-Cu complex from the SPR sensors: concentrated histidine solution or saturated EDTA solution.
This is the case of the CD36-ligand system investigated herein, where the ligands are small peptides of about 800 to 1000 g/mol. Indeed, according to the aforementioned principle, the binding of the small peptides to the CD36 receptor should be close to the limit of detection, thus providing unreliable affinity measurements. […] This could be a consequence of a large conformational change of the CD36 receptor upon binding of specific ligands, thus providing the amplification sufficient for SPR signal detection.
(§2) The SPR setup was used for investigating the structure-activity relationships of various CD36 peptidic ligands. […] The measured KD's were compared to the EC50 values obtained in the activated src-kinase assay following CD36 receptor activation by the tested peptides. […] For the src-kinase cellular assay, the response sensitivity (EC50) for the tested peptides (in decreasing order) was as follows: EP80317>CP-2A(v)>CP-3(iv)>DBG-178(27)>CP-2B(i). With SPR, the binding affinity to CD36, in decreasing order, was: DBG-178(27)>CP-2A(v)>EP80317>CP-3(iv)>CP-2B(i). […] For CD36-peptidic ligands, a correlation appears between the affinity binding of the small peptides for CD36 as determined by SPR and their efficiency to produce a cellular response in the src kinase assay. Thus, SPR appears as a selective and sensitive method to screen for CD36 ligands.

CD36 receptor = CD36 receptor (Homo sapiens, UniProt P16671); test: SRC-kinase cellular assay following CD36 receptor activation; assay type: cell-based; details: activation of src-kinases after CD36 receptor activation
Chain of CD36 receptor (P16671 whole entry): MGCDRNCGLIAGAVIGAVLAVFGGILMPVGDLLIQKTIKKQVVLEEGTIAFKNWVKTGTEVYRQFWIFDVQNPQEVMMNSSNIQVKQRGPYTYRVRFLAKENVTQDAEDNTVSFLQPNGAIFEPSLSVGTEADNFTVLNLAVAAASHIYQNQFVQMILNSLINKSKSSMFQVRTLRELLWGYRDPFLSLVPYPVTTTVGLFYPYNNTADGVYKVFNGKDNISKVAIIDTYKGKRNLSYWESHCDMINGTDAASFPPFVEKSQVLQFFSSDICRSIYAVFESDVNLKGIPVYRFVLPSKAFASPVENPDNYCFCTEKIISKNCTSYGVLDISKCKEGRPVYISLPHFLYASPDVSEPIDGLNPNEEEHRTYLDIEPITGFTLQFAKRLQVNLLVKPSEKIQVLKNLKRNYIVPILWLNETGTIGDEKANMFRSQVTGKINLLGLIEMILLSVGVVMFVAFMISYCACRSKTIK
Source text: as §2

Row | Molecule | Surface density ΔΓSAM [1] | Contact angle in PBS θC_PBS [2] [°] | Secondary Structure FT-IR (SAM) [3] | Secondary Structure CD (solution) [4] | other results
1 | 3-MPA-DDDHH ([Mpa]DDDHH) | 0.279 10^15 molecule/cm^2 | 46.4 |  |  | 
2 | 3-MPA-DDDSS ([Mpa]DDDSS) | 0.311 10^15 molecule/cm^2 | 51.2 |  |  | 
3 | 3-MPA-DHDHD-OH ([Mpa]DHDHD-OH; SMILES O=C(O)C[C@H](NC(=O)[C@H](Cc1c[nH]cn1)NC(=O)[C@H](CC(=O)O)NC(=O)[C@H](Cc1c[nH]cn1)NC(=O)[C@H](CC(=O)O)NC(=O)CCS)C(=O)O) |  |  | α | α | 
4 | 3-MPA-DSDSD-OH ([Mpa]DSDSD-OH; SMILES O=C(O)C[C@H](NC(=O)[C@H](CO)NC(=O)[C@H](CC(=O)O)NC(=O)[C@H](CO)NC(=O)[C@H](CC(=O)O)NC(=O)CCS)C(=O)O) |  |  | extended | extended | 
5 | 3-MPA-GGGGD-OH ([Mpa]GGGGD-OH; SMILES O=C(O)C[C@H](NC(=O)CNC(=O)CNC(=O)CNC(=O)CNC(=O)CCS)C(=O)O) |  |  | α | α | 
6 | 3-MPA-GGHHDD-OH ([Mpa]GGHHDD-OH; SMILES O=C(O)C[C@H](NC(=O)[C@H](CC(=O)O)NC(=O)[C@H](Cc1c[nH]cn1)NC(=O)[C@H](Cc1c[nH]cn1)NC(=O)CNC(=O)CNC(=O)CCS)C(=O)O) |  |  | α | α | 
7 | 3-MPA-HHHSS ([Mpa]HHHSS) | 0.125 10^15 molecule/cm^2 | 39.9 |  |  | 
8 | 3-MPA-LHDLHD-OH ([Mpa]LHDLHD-OH; SMILES CC(C)C[C@H](NC(=O)CCS)C(=O)N[C@@H](Cc1c[nH]cn1)C(=O)N[C@@H](CC(=O)O)C(=O)N[C@@H](CC(C)C)C(=O)N[C@@H](Cc1c[nH]cn1)C(=O)N[C@@H](CC(=O)O)C(=O)O) |  |  | α | α | 
9 | 3-MPA-LLHHDD-OH ([Mpa]LLHHDD-OH; SMILES CC(C)C[C@H](NC(=O)CCS)C(=O)N[C@@H](CC(C)C)C(=O)N[C@@H](Cc1c[nH]cn1)C(=O)N[C@@H](Cc1c[nH]cn1)C(=O)N[C@@H](CC(=O)O)C(=O)N[C@@H](CC(=O)O)C(=O)O) |  |  | α | α | 
10 | 3-MPA-LLLDD ([Mpa]LLLDD) | 0.352 10^15 molecule/cm^2 | 52.3 |  |  | 
11 | 3-MPA-LLLHH ([Mpa]LLLHH) | 0.296 10^15 molecule/cm^2 | 41.4 |  |  | 
12 | 3-MPA-LLLSS ([Mpa]LLLSS) | 0.255 10^15 molecule/cm^2 | 32.6 |  |  | 
13 | 3-MPA-SHDSHD-OH ([Mpa]SHDSHD-OH; SMILES O=C(O)C[C@H](NC(=O)[C@H](Cc1c[nH]cn1)NC(=O)[C@H](CO)NC(=O)[C@H](CC(=O)O)NC(=O)[C@H](Cc1c[nH]cn1)NC(=O)[C@H](CO)NC(=O)CCS)C(=O)O) |  |  | α-helical and α | extended | 
14 | 3-MPA-SSSDD ([Mpa]SSSDD) | 0.441 10^15 molecule/cm^2 | 38.8 |  |  | 
15 | 3-MPA-SSSHH ([Mpa]SSSHH) | 0.301 10^15 molecule/cm^2 | 40.0 |  |  | 
16 | NCCCC[C@H](NC(=O)[C@@H](Cc1ccccc1)NC(=O)[C@H](Cc1c[nH]c2ccccc12)NC(=O)NNC(=O)[C@@H](Cc1c[nH]c2ccccc12)NC(=O)[C@@H](N)Cc1cnc[nH]1)C(N)=O [CP-2A(v), His-DTrp-AzaGly-Trp-DPhe-Lys-NH2] (H-H[dW][azaGly]W[dF]K-NH2) |  |  |  |  | Kd [5]: 44 nM; EC50 (CD36 receptor): 26 nM
17 | CC(C)CN(NC(=O)[C@@H](Cc1c[nH]c2ccccc12)NC(=O)[C@@H](N)Cc1c[nH]cn1)C(=O)N[C@@H](Cc1c[nH]c2ccccc12)C(=O)N[C@H](Cc1ccccc1)C(=O)N[C@@H](C)C(N)=O [CP-2B(i), His-DTrp-AzaLeu-Trp-DPhe-Ala-NH2, reference compound] (H-H[dW][azaLeu]W[dF]A-NH2) |  |  |  |  | Binding affinity to CD36 (in words) ([5]; negative control): low binding affinity
18 | CC(C)CN(NC(=O)[C@@H](Cc1c[nH]c2ccccc12)NC(=O)[C@@H](N)Cc1cnc[nH]1)C(=O)N[C@@H](Cc1c[nH]c2ccccc12)C(=O)N[C@H](Cc1ccccc1)C(=O)N[C@@H](C)C(N)=O [CP-2B(i), His-DTrp-AzaLeu-Trp-DPhe-Ala-NH2, reference compound] (H-H[dW][azaLeu]W[dF]A-NH2) |  |  |  |  | Kd [5]: 1400 nM; EC50 (CD36 receptor): > 10000 nM
19 | C[C@H](N)C(=O)N[C@H](Cc1c[nH]c2ccccc12)C(=O)N[C@@H](C)C(=O)NN(Cc1ccccc1)C(=O)N[C@H](Cc1ccccc1)C(=O)N[C@@H](CCCCN)C(N)=O [CP-3(iv), Ala-DTrp-Ala-AzaPhe-DPhe-Lys-NH2] (H-A[dW]A[azaPhe][dF]K-NH2) |  |  |  |  | Kd [5]: 380 nM; EC50 (CD36 receptor): 44 nM
20 | C[C@H](NC(=O)[C@@H](Cc1c[nH]c2ccccc12)NC(=O)[C@@H](N)Cc1cnc[nH]1)C(=O)NN(Cc1ccc(O)cc1)C(=O)N[C@H](Cc1ccccc1)C(=O)N[C@@H](CCCCN)C(N)=O [DBG-178(27), His-DTrp-Ala-azaTyr-DPhe-Lys-NH2] (H-H[dW]A[azaTyr][dF]K-NH2) |  |  |  |  | Kd [5]: 22 nM; EC50 (CD36 receptor): 63 nM
